From FireProtDB (doi:10.1021/bi000415x)

Conditions: Lithobates pipiens, MES 100 mM, reversible: yes, whole UniProt chain shown; for unfolding free energy / denaturant m value / denaturant midpoint (higher = more stable): 25 °C

B1: Protein P-30 wild type, P22069 (protein)
chain: QDWLTFQKKHITNTRDVDCDNIMSTNLFHCKDKNTFIYSRPEPVKAICKGIIASKNVLTTSEFYLSDCNVTSRPCKYKLKKSTNKFCVTCENQAPVHFVGVGSC
pH 2, Thermal, DSC
  unfolding free energy: 8.84 kcal/mol
  Tm: 69.5 °C
  heat capacity change of unfolding: 1.48 kcal/mol/K
  unfolding enthalpy (calorimetric): 102 kcal/mol
  unfolding enthalpy (van 't Hoff): 105 kcal/mol
pH 2.5, Thermal, DSC
  unfolding free energy: 9.54 kcal/mol
  Tm: 72.6 °C
  heat capacity change of unfolding: 1.31 kcal/mol/K
  unfolding enthalpy (calorimetric): 105 kcal/mol
  unfolding enthalpy (van 't Hoff): 104 kcal/mol
pH 3, Thermal, DSC
  unfolding free energy: 10.8 kcal/mol
  Tm: 76.5 °C
  heat capacity change of unfolding: 1.43 kcal/mol/K
  unfolding enthalpy (calorimetric): 112 kcal/mol
  unfolding enthalpy (van 't Hoff): 110 kcal/mol
pH 3.5, Thermal, DSC
  unfolding free energy: 12.2 kcal/mol
  Tm: 81.6 °C
  heat capacity change of unfolding: 1.36 kcal/mol/K
  unfolding enthalpy (calorimetric): 120 kcal/mol
  unfolding enthalpy (van 't Hoff): 118 kcal/mol
pH 4, Thermal, DSC
  unfolding free energy: 13.5 kcal/mol
  Tm: 86.8 °C
  heat capacity change of unfolding: 1.24 kcal/mol/K
  unfolding enthalpy (calorimetric): 125 kcal/mol
  unfolding enthalpy (van 't Hoff): 127 kcal/mol
pH 5, Thermal, DSC
  unfolding free energy: 14.1 kcal/mol
  Tm: 88.3 °C
  heat capacity change of unfolding: 1.53 kcal/mol/K
  unfolding enthalpy (calorimetric): 129 kcal/mol
  unfolding enthalpy (van 't Hoff): 132 kcal/mol
pH 6, GdnHCl, CD
  denaturant m value: 3.13 kcal/mol/M
  denaturant midpoint (higher = more stable): 4.5 M
  unfolding free energy: 14.1 kcal/mol
pH 6, GdnHCl, Fluorescence
  denaturant m value: 3.08 kcal/mol/M
  denaturant midpoint (higher = more stable): 4.5 M
  unfolding free energy: 13.9 kcal/mol
pH 6, Thermal, DSC
  unfolding free energy: 14.2 kcal/mol
  Tm: 88.7 °C
  heat capacity change of unfolding: 1.31 kcal/mol/K
  unfolding enthalpy (calorimetric): 129 kcal/mol
  unfolding enthalpy (van 't Hoff): 128 kcal/mol
pH 7, Thermal, DSC
  unfolding free energy: 13.7 kcal/mol
  Tm: 87.8 °C
  heat capacity change of unfolding: 1.43 kcal/mol/K
  unfolding enthalpy (calorimetric): 127 kcal/mol
  unfolding enthalpy (van 't Hoff): 123 kcal/mol
pH 8, Thermal, DSC
  unfolding free energy: 13 kcal/mol
  Tm: 85.4 °C
  heat capacity change of unfolding: 1.39 kcal/mol/K
  unfolding enthalpy (calorimetric): 123 kcal/mol
  unfolding enthalpy (van 't Hoff): 127 kcal/mol
